The record followed here is paper PMC4654454 (ACS chemical biology, 2015).

No end group written: not given here.

The target of series [1] is T1, human Origin Recognition Complex subunit 1 BAH domain, R105Q mutant (human, UniProt Q13415 45-171, R105Q).
T1 sequence (looked up): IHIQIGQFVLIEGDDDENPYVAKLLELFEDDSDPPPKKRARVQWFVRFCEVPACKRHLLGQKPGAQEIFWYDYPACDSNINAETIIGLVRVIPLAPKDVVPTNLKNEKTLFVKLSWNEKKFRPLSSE
Kind of series: ITC. Background: Isothermal titration calorimetry measures the heat released or taken up as one component is titrated into another.

The target in series [2] is T2, human Origin Recognition Complex subunit 1 BAH domain, wild type (human, UniProt Q13415 45-171).
T2 sequence (looked up): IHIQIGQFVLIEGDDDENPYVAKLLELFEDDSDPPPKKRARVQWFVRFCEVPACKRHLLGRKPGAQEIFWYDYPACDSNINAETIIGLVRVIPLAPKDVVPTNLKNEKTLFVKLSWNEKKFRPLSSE
Kind of series: ITC.

In series [3] the target is T3, hORC1 BAH domain, wild type (human, UniProt Q13415 45-171).
T3 sequence: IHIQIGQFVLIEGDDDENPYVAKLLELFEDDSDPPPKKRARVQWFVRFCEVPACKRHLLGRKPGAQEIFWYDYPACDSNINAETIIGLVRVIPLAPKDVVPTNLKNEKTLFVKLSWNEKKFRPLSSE
Kind of series: EMSA.

B1: histone H4(14–25)Kc20me2 peptide (peptide)
peptide: GAKRHRCVLRDNY
modifications: not fully specified (residue 7)
Turning to B1, the Kd in series [1] is 8.33 µM; in series [2] it was 8.85 µM.

B2: 14-bp DNA duplex (dsDNA)
DNA 1: GGAGGCCTCCTGCT
DNA 2: AGCAGGAGGCCTCC
As for B2, in series [3], the binding result is listed as “binds”.

One may read the Kd as a measure of binding affinity in units of concentration.
